Source: the nanobody polyreactivity screen of Harvey et al. (2022)

experiment: yeast display, Sf9 membrane polyspecificity reagent, FACS + sequencing; frameworks hold sequencing errors
In short: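 Sorting gates, low and high (top ~1%), were placed on anti-HA fluorescence to track expression and on streptavidin fluorescence to track reagent binding. A clone's polyreactivity label is taken from the gate it came out of. The reagent was 10% biotinylated, detergent-solubilized Sf9 membrane, applied for 1 hour at 4 °C to galactose-induced yeast display cells.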

Sequence | polyreactivity (PSR sort gate)
QVQLVESGAGLVQAGGSLRLSCAASGRIFADYAMGWYRQAPGKERELVADIRQSGGRTYYADSVKGRFTISRDNAKNTVYLQMNSLKPEDTAVYYCATDYGSWGDYSGKYDYWGQGTQVTVSS | low polyreactivity
QVQLVESGAGLVQAGGSLRLSCAASGRIFAGYAMGWYRQAPGKEMELVATISSGGSTYYADSVKGRFTISRYNAKNTVYLQMNSLKPEVTAVYYCAADNWVNDGDYCGQGTQVTVSS | low polyreactivity
QVQLVESGAGLVQAGGSLRLSCAASGRIFHKYAMGWYRQAPGKERELVAAIDWSGGSTYYADSVKGRFTISRDNAKNTVYLQMNSLKPEDTAVYYCAAYWYYEDGQCEARLYGYDYWGQGTQVTVSS | low polyreactivity
QVQLVESGAGLVQAGGSLRLSCAASGRIFLGNAMGWYRQAPGKERELVAAISRSGVTRYYADSVKGRFTISRYNGKNTVYLQMNSLKPEDTAVYYCAVERYDRFDHYYWVQGTQVTVSS | low polyreactivity
QVQLVESGAGLVQAGGSLRLSCAASGRIFYKYVMGWYRQAPGKERELVATITSGGSTYYADSVKGRFTISRDNAKNTVYLQMNSLKPEDTAVYYCATKQSRTRYDRYGYWGQGTQVNVSS | high polyreactivity
QVQLVESGAGLVQAGGSLRLSCAASGRTFFRYVMGWYRQAPGKERELVAAIRSGGSTNYADSVKGRFTISLDNAKNTVYLQMNSLKPEDTAVYYCAARKWHSAYDYWVQGTQVTVSS | high polyreactivity
QVQLVESGAGLVQAGGSLRLSCAASGRTFRINTMGWSIQAPGKERELVATITGSGGSTYYADSVKGRFTISRDNAKNTVYLQMNSLKPEDTAVYYCAAVGDQNEYDYWGQGTQVTVSS | low polyreactivity
QVQLVESGAGLVQAGGSLRLSCAASGRTFSAYAMGWYRQAPGKERELVAAITLSVGSTYYADSVKGRFTISRDNAKTTVYLQMNSLKPEDTAVYYCNKYKKGEGGITIVRFDYWGQGTQVTVSS | low polyreactivity
QVQLVESGAGLVQAGGSLRLSCAASGSIFDYYAMGLYRQAPGKERELVAVITRGGSTYYADSVKGRFTISRDNAKNTDSLQMNSLKPEDTAVYYCNASRGYKSRYEYWGQGTQVTVSS | high polyreactivity
QVQLVESGAGLVQAGGSLRLSCAASGSIFEYYAMGWYRQAPGKERELVAAISSGGPTYYADSVKGRFTISRDNAKNTVYLQMNSLKPEDTAVYYCNAALRYPDYDYWGQGTQVTVSS | low polyreactivity
QVQLVESGAGLVQAGGSLRLSCAASGSIFRKYGMGLYRQAPGKDRELVATITSSGGSTYYADSVKGRFRISRDNAKNTVYVQMNSLIPEDTAVYYCAARWTYSFHWFSRYDYWGPGTQVTVSS | high polyreactivity
QVQLVESGAGLVQAGGSLRLSCAASGSIFYYYAMGWYRQAPGKEREFVAAIRESGGSTYYADSVKGRFTISRDNAKNTVYLQMNSLKPEDTAVYYCAVRRPRRNYNYPYDYWGLGTQVTVSS | low polyreactivity
QVQLVESGAGLVQAGGSLRLSCAASGSTFRSNAMGWYRPAPGKEREFVASITSRGGPTYYADSVKGRFTISRDNAKNTVYLQMKSLKPEDTAVYYCASARSYLTYFYHYDYWGQGTQVTVSS | low polyreactivity
QVQLVESGAGLVQAGGSLRLSCAASGSTLVGNTMGWYRQSPGKERELVAAITGVGSTNYADSVKGRFTISRDNAKNTVYLQMNSLKPEDTAVYYCAVDGRSVQARWPRFDYWGQGTQVTVSS | low polyreactivity
QVQLVESGAGLVQAGGSLRLSCAASGYAMGWYRQAPGKERELVAAITSNGGRTYYADSVKGRFTISRDYAKNTVYLEMNSLKPEDTAVYYCATRTGPHYKTRWTYDQGYWGQGTQVTVSS | low polyreactivity
QVQLVESGAGLVQAGGSLRLSCAASGYIFGQNAMGWYRQAPGKERELVASISDGGSTYYADSVKGRFTISRDNAKNTVYLQMNSLKPEDTAVYYCAAGQDWGEKALGAWLFDYWGHGTQVTVSS | low polyreactivity
QVQLVESGAGLVQAGGSLRLSCAASVSIFDIYAMGWYRQAPGKERELVADISWSGGSTYYADSVKGRFTISRDNAKNSVYLQMNSLKPEDTAVFDCAAELYGFTVDPGDYWGQGTQVTVSS | low polyreactivity
QVQLVESGAGLVQAGGSLRLSSAASGSIFEPNAMGWYRQAPGKERELVAAITSGGTTYADSVKGRFTISRDNAKNSVYFQMNSLKPEDSAVYYCAAYYIFVYYYPFDYWGQGTQVTVSS | low polyreactivity
QVQLVESGAGLVQAGGSLRLSWAASGSNYDIYAMGWYRQAPGKERELVAAITGSGGSTNYADSVKGRFTISRDNAKNTVYVQLNSLKPEDTAVYYCAAAGFDYPSDTYGYWGQGTQVTVSS | low polyreactivity
QVQLVESGAGLVQAGGSLSLSCAASGRIFDRYVMGWYRQAPGKERELVAAISDGGSTYYADSVKGRFTISRDNAKNTVYLQMNSLKPEDTAVYYCAAVRYNSRVSTTPSEMYYWGQGTQVTVSS | low polyreactivity
QVQLVESGAGLVQAGGSLSLSCAASVSILRFYAMGWYRQAPGKERELVAAISTRGGSTYYADSVKGRFTISRVNAKYTVYLQMNSLKPEDTAVYYCAKRWPQYTDYKPMYYWGQGTQLTVSS | high polyreactivity
QVQLVESGAGLVQAGGTLRLSCAASGRTRQYNDMGWYRQAPGKERELVAAMTWSGGLTYYADSVKGRFTISRDNAKNTVYLKMNCLKPEDTAVYYCAVDGGTPGALRRFNYWGQGTQVTVSS | high polyreactivity
QVQLVESGAGLVQAGVSLRLSCAASGRIFVVNAMGRYRHAPGKERELVAAISRGGSTNYADSVKGPFTISRDNAKNTVYLQMNSLKPEDTAVYYCNADGSSYWYPVPLDGGDYWGQGTLVTVSS | low polyreactivity
QVQLVESGAGLVQAPGSLRLSCAASGRTFPRNAMGRYRQAPGKERDLVATISLSGGSTYYADSVKGRFTISRDNAKNTVYLQMNSLKPEDSADYYCARTRNPWPTSFDYWGQGTQVTVSS | low polyreactivity
QVQLVESGAGLVQEGGRLRLRCAASGFTFMDNAMGCYRKAPGKETQLVAAISRSGGSTYYADSVKGRFTISRDNAKNTVYLQMKSLKPEDTEGFYCAAFLYRSQYSGFEYWGQGTQVTVSS | high polyreactivity
QVQLVESGAGLVQEGGSLRLSCAASGRTSGFNTMGRYRQAPGKETQLVAAISFSGGSTYYADSVKGRFTISRDNEKNTVYLQMNSLKPEDTEVYYCNALYRYLYRSGDYWGQGTQVSVSS | low polyreactivity
QVQLVESGAGLVQEGGSLRLSCAASGSIFQAYAMGWYRKAPGKERELVANISSGGSTNYADSVKGRFTISRDNAKNTVYLQMNSLKPEDTAVYYCAASRWIFVLTYEYDYWNRRDYWGQGTQVTVSS | low polyreactivity
QVQLVESGARLVQAGGSLRLSCAASGFIFRAYTMGWYRQAPGKERELVAAITSSGGRTYYADSVKGRFTISRDNAKNTVYLQMNSLKPEDTAVYYCATVDAKWKQFDYWGQGTQVTVSS | high polyreactivity
QVQLVESGARLVQAGGSLRLSCAASGLIFYGNAMGWYRQAPGKERELVAAISRRGGRTYYADSVKGRFTISRDNAENTVYLQKNSLKPEDTAVYYCAAQYSYPYYKVTLYYWGQGTQVTVSS | high polyreactivity
QVQLVESGEGLVQAGGSLRLSCAASGITFFRNTMGWYRHAPGKERELVAAISKSGDNTYYADSVKVRFTISRDNAKNTVYLQMNSLKPEDTAVYYCNKAYRKFYYGYDYWGQGTQVTVSS | high polyreactivity
